Data from patent publication US20180339041A1 (Kyowa Kirin, published 2018).

T1: C-terminally FLAG-tagged human Gas6 recombinant protein (hGas6-F) (human, UniProt Q14393 31-678, gamma-carboxylated glutamic acid residues in the Gla domain (producer cells co-express rat VKOR and human GGCX); positions not given)
T1 construct: also called human Gas6-F; human Gas6 protein
T1 sequence: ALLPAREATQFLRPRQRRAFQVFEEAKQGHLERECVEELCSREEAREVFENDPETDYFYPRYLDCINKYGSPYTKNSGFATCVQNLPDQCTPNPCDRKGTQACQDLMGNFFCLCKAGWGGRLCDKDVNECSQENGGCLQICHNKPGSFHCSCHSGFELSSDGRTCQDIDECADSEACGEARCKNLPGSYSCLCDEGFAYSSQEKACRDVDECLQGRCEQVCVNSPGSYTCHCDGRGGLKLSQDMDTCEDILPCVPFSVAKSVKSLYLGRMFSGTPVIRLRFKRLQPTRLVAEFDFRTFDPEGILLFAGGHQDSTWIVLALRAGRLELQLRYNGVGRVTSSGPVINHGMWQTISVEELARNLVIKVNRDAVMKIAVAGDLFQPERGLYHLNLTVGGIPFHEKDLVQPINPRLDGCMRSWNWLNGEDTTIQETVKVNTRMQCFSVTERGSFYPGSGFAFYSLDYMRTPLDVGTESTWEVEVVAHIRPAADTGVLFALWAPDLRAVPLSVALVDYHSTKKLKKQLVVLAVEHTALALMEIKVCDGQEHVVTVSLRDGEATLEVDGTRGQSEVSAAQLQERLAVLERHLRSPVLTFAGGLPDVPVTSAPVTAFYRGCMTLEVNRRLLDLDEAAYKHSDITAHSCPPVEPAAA

T2: human protein S (derived from human serum; Enzyme Research Laboratories) (human, UniProt P07225 42-676)
T2 construct: Homologue of Gas6 used as specificity control
T2 sequence (looked up): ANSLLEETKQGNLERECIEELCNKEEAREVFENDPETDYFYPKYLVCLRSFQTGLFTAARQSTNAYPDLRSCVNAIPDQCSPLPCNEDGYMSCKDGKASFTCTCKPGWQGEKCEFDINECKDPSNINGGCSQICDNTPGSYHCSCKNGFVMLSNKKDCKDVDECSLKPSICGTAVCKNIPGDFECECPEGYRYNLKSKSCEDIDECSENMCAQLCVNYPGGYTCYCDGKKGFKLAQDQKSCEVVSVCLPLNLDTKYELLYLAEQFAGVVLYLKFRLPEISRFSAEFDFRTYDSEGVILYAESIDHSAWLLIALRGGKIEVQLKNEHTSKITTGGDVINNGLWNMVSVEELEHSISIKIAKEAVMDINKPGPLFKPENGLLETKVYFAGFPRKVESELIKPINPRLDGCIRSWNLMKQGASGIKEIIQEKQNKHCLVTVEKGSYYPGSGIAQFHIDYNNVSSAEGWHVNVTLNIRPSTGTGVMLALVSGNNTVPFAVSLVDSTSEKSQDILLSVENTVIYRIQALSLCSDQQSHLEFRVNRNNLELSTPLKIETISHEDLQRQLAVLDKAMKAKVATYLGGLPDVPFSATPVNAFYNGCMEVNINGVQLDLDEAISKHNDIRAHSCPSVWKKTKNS

T3: hGas6-FH-L314A, Q315A, P316A (alanine substitution variant) (human, UniProt Q14393 1-678)
T3 construct: Limits of the deletion derived as for hGas6-FH; also called alanine variant
T3 chain: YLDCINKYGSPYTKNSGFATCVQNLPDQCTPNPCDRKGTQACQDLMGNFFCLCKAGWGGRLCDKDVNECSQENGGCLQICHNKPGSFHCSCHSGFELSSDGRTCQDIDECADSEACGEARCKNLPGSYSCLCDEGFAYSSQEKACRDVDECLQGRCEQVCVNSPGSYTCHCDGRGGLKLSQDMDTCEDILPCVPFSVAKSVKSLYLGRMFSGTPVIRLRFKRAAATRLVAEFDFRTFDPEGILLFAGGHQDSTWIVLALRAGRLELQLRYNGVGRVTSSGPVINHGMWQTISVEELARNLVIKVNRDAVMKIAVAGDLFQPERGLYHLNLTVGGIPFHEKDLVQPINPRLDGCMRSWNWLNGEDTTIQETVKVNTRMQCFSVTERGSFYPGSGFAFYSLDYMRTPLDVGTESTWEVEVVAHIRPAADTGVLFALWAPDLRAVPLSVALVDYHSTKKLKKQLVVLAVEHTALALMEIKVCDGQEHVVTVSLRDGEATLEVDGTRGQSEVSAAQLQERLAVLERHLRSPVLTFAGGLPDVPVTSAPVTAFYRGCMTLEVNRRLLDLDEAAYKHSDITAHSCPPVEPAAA

B1: CNTO antibody (anti-Gas6 monoclonal antibody WG1 of U.S. Pat. No. 7,547,767, remade) (antibody, V domains shown)
VH: QVQLVESGGGVVQPGRSLRLSCAASGFTFSSYGMHWVRQAPGKGLEWVAVIWYDGSNKYYADSVKGRFTISRDNSKNTLYLQMNSLRAEDTAMYFCAREGFYYDILTAYSLEYFQHWGQGTLVTVSS
VL: EIVLTQSPDFQSVTPKEKVTITCRASQSIGSSLHWYQQKPDQSPKLLIKYASQSFSGVPSRFSGSGSGTDFTLTINSLEAEDAAAYYCHQSSSLPYTFGQGTKLEIK
notes: Expressed from vector pKANTEX93 in CHO; also called CNT0300
B2: anti-human Gas6 mouse-rat chimeric antibody KM5320-rKG1 (antibody, V domains shown)
VH: QIQLVQSGPELKKPGETVKISCKASGYTFTNYGMNWVKQAPGKGLKWMGWINTETGEPTYSDDFKGRFAFSLETSATTAYLQINNLRNEDMATYFCAREDGYYGTLDYWGQGTSVTVSS
VL: SIVMTQTPKFLLVSAGDRVTITCKASQSVSNDVAWYQQKPGQSPKVLIYYASNRYTGVPDRFTGSGYGTDFTFTISTVQAEDLAVYFCQQDYSSPWTFGGGTKLEIK
notes: 92 and 94 are not tied in words; also called KM5320-rKG1 antibody
B3: anti-human Gas6 mouse-rat chimeric antibody KM5321-rKG1 (antibody, V domains shown)
VH: QIQLVQSGPELKKPGETVKISCRASGYTFTNYGMNWVKQAPGKGLKWMGWINTNTGEPTYTEEFKGRFAFSLETSATTAYLQINDLKNEDTATYFCARDEGWFVYWGQGTLITVSA
VL: ETTVTQSPASLSVATGEKVTIRCITSTDIDDDMNWYQQKPGEPPKLLISEGNTLRPGVPSRFSSSGYGTDFVFTIENTLSEDVADYYCLQTDSVPLTFGAGTKLELK
notes: 96 and 98 are not tied in words; also called KM5321-rKG1 antibody

Legend:
[1] = molecular target: T1, C-terminally FLAG-tagged human Gas6 …; assay: ELISA, Gas6-F captured by anti-FLAG, biotinylated antibody
Protocol: After removal of the immobilization solution, 1% BSA-PBS (manufactured by Nacalai Tesque, Inc.) was added thereto at 300 μL/well, and the plate was left standing at room temperature for 1 hour for blocking and washed five times with Tween 20-PBS (manufactured by Wako Pure Chemical Industries Ltd.).
(§1) Each antibody solution was dispensed thereto at 50 μL/well, and the plate was left standing at room temperature for 1 hour. This plate was washed five times with Tween 20-PBS. Then, Streptavidin HRP Conjugate (manufactured by R&D Systems, Inc.) diluted 200-fold with 1% BSA-PBS was dispensed thereto at 50 μL/well, and the plate was left standing at room temperature for 1 hour. This plate was washed five times with Tween 20-PBS, and TMB (manufactured by Sigma-Aldrich Co. LLC) was added thereto at 50 μL/well and reacted. At an appropriate point in time, the reaction was terminated by the addition of 1 N hydrochloric acid (manufactured by Wako Pure Chemical Industries Ltd.) at 50 μL/well. The absorbance at a sample wavelength of 450 nm and a reference wavelength of 570 nm (450 nm-570 nm) was measured using a plate reader.

[2] = molecular target: T2, human protein S (derived from human …); assay: ELISA: human protein S coated directly on the plate (2 µg/mL); biotinylated test antibody; streptavidin-HRP/TMB (Example 6, method of Example 5(5)) [F]
Protocol: First, a 2 μg/mL solution of the antigen (prepared from each antigen with PBS (manufactured by Nacalai Tesque, Inc.)) was dispensed at 50 μL/well to a 96-well plate for ELISA (manufactured by Nalge Nunc International), and the plate was left standing overnight at 4° C. for adsorption. The plate was washed five times with Tween 20-PBS. Then, 1% BSA-PBS (manufactured by Nacalai Tesque, Inc.) was added thereto at 300 μL/well, and the plate was left standing at room temperature for 1 hour for blocking and washed five times with Tween 20-PBS (manufactured by Wako Pure Chemical Industries Ltd.). Next, the hybridoma culture supernatant was dispensed thereto as a test substance at 50 μL/well, and the plate was left standing at room temperature for 1 hour and then washed five times with Tween 20-PBS. Next, polyclonal goat anti-mouse immunoglobulins/HRP (Dako Denmark A/S, P0447) diluted 2000-fold with 1% BSA-PBS was dispensed thereto at 50 μL/well, and the plate was left standing at room temperature for 1 hour. The plate was washed five times with Tween 20-PBS, and TMB (manufactured by Sigma-Aldrich Co. LLC) was added thereto at 50 μL/well and reacted. At an appropriate point in time, the reaction was terminated by the addition of 1 N hydrochloric acid (manufactured by Wako Pure Chemical Industries Ltd.) at 50 μL/well. The absorbance at a sample wavelength of 450 nm and a reference wavelength of 570 nm (450 nm-570 nm) was measured using a plate reader (Spectra Max, manufactured by Molecular Devices, LLC).
The binding activity of the obtained antibodies against human protein S was measured in the same way as in Example 5(5). […] The secondary detection reagent used was Streptavidin HRP Conjugate (manufactured by R&D Systems, Inc.) diluted 200-fold with 1% BSA-PBS.

[3] = molecular target: T3, hGas6-FH-L314A, Q315A, P316A (alanine …); assay: ELISA, variant captured by anti-FLAG, biotinylated antibody
Protocol: First, 2 μg/mL anti-FLAG antibody [Monoclonal ANTI-FLAG M2 antibody produced in mouse (manufactured by Sigma-Aldrich Co. LLC) diluted with PBS (manufactured by Nacalai Tesque, Inc.)] was dispensed at 50 μL/well to a 96-well plate for ELISA (manufactured by Nalge Nunc International), and the plate was left standing overnight at 4° C. for adsorption. After removal of the immobilization solution, 1% BSA-PBS (manufactured by Nacalai Tesque, Inc.) was added thereto at 300 μL/well, and the plate was left standing at room temperature for 1 hour for blocking and washed five times with Tween 20-PBS (manufactured by Wako Pure Chemical Industries Ltd.).
as §1, with “At an appropriate point in time, the reaction was terminated by the addition of 1 N hydrochloric acid (manufactured by Wako Pure Chemical Industries Ltd.) at 50 μL/well.” left out

| Binder | antibody concentration at which binding activity was detected [1] | binding activity at 5 µg/mL against the largest activity of KM5320-mKG1 and KM5321-mKG1 [1] | binding result [2] | binding result [3] |
| --- | --- | --- | --- | --- |
| B1 | 0.04 µg/mL | < 0.5 fold | no binding (tested: 5 µg/mL) | – |
| B2 | – | – | – | no binding |
| B3 | – | – | – | no binding |
